In patent US20100247590A1, “Peptide-Based Systems For Delivery Of Cosmetic Agents” (JOHNSON & JOHNSON, priority 2009, published 2010):

What was measured:
[1] = Peptide-mediated binding of Co-NTA magnetic beads to gray hair, visual rating on magnet; set-up: species or system human
Description: Approximately 5 mg of 5 mm long hair strands (90% gray, human) were transferred to 2-mL microcentrifuge tubes. Approximately 1 mL of TBST0.1 buffer (25 mM Tris, 150 mM NaCl, pH7.2, with 0.1% TWEEN®-20) or the same buffer including varying concentrations of HC263 peptide was added to the hair.
The mixtures were shaken on a Nutator for one hour at room temperature (˜22° C.). The hairs were washed three times with TBST0.5 buffer (25 mM Tris, 150 mM NaCl, pH 7.2, with 0.5% TWEEN®-20). After washing, the hairs were resuspended in 900 μL Talon buffer (50 mM sodium phosphate, pH 8.0, 300 mM sodium chloride, 0.01% TWEEN®-20). A subset of hair/peptide conjugates were washed additionally one time with 1 mL of 0.25% SLES (Sodium Lauryl Ether Sulfate) for 5 min at room temperature on the Nutator, then washed two times with 1 mL TBST0.1 buffer. Approximately 0.2 mg of TALON™ beads (DYNABEADS® TALONT™, Invitrogen, Catalog#101.01D) were washed twice with TALON™ buffer on the DYNAL® MPC™ magnet and added to each reaction in 100 μL TALON™ buffer. The magnetic beads were coated with Co-NTA, which specifically binds to the six histidine residues incorporated into the peptide (C-terminal his tag). The hair and beads were incubated for 10 minutes with gentle shaking before the tubes were placed on the magnet.
Beads binding to the hair were expected to co-migrate on the sides of the tubes once applied to the magnet. The strength of binding was visually assessed and rated on a scale of 0 (little or no observed binding) to 5 (highest amount of observed binding).
The hair binding assay of Example 3 was used to assess the strength of binding of the test peptides in Table 10.

[2] = HC263-mediated binding of magnetic beads to surfaces, SEM score: wool; details: surface wool, 0.2 μM HC263
Description: (§1) Peptide HC263 (SEQ ID NO: 196) was tested for peptide-mediated binding of magnetic beads to various surfaces: human hair, yak hair, wool, cotton, SONTARA® (a nonwoven, spunlaced textile sheet fabric, E.I. duPont de Nemours and Company, Inc., Wilmington, Del.), and cellulose (filter paper). Approximately 5 mg of human hair (90% gray), yak hair, wool, cotton, SONTARA®, or filter paper were added to 2-mL microcentrifuge tubes. Approximately 1 mL of TBST0.1 buffer (25 mM Tris, 150 mM NaCl, pH 7.2, with 0.1% TWEEN®-20) containing 0.2 μM HC263 was added. The mixtures were shaken on a Nutator (BD Diagnostics, Franklin Lakes, N.J.) for 30 minutes at room temperature (˜22° C.). The samples were washed three times with TBST0.5 buffer (25 mM Tris, 150 mM NaCl, pH 7.2, with 0.5% TWEEN®-20). After washing, the samples were re-suspended in 900 μL TALON™ (Clontech, Mountain View, Calif.) buffer (50 mM sodium phosphate, pH 8.0, 300 mM sodium chloride, 0.01% TWEEN®-20). Approximately 0.2 mg of TALON™ beads (DYNABEADS® TALON™, Invitrogen, Carlsbad, Calif.; Catalog#101.01D) were washed twice with TALON™ buffer on the DYNAL® MPC™ magnet (Invitrogen) and added to each reaction in 100-μL TALON™ buffer.
(§2) The strength of binding of the magnetic beads to the various surfaces was evaluated by visualization of scanning electron microscope (SEM) images taken at 1000-fold magnification.

[3] = HC263-mediated binding of magnetic beads to surfaces, SEM score: cotton; details: surface cotton, 0.2 μM HC263
Description: as §1, §2

[4] = HC263-mediated binding of magnetic beads to surfaces, SEM score: cellulose; details: surface cellulose (filter paper), 0.2 μM HC263
Description: as §1, §2

[5] = HC263-mediated binding of magnetic beads to surfaces, SEM score: yak hair; details: surface yak hair, 0.2 μM HC263
Description: as §1, §2

[6] = HC263-mediated binding of magnetic beads to surfaces, SEM score: SONTARA; details: surface SONTARA, 0.2 μM HC263
Description: as §1, §2

B1: MASGSDPS-Hair2Rnd1-GPEPEPEPEPIPEPPKEAPVVIEKPKPKPKPKPKPPA-Gray3Rnd4-GSGGGGSP-HHHHHH (peptide)
chain: MASGSDPSDRSKLYQSLEHRQPPGAHAQGPEPEPEPEPIPEPPKEAPVVIEKPKPKPKPKPKPPAAHDAKHEHRKQNHTQGSGGGGSPHHHHHH
- Strength of binding (5 highest, 0 lowest) ([1]; Table 11, peptide 0.002 μM): 2
- Strength of binding (5 highest, 0 lowest) ([1]; Table 11, peptide 0.02 μM): 5
- Strength of binding (5 highest, 0 lowest) ([1]; Table 11, peptide 0.2 μM): 5

B2: MASGSDPS-Hair2-GPEPEPEPEPIPEPPKEAPVVIEKPKPKPKPKPKPPA-Gray3-GSGGGGSP-HHHHHH (peptide)
chain: MASGSDPSAQSQLPDKHSGLHERAPQRYGPEPEPEPEPIPEPPKEAPVVIEKPKPKPKPKPKPPAHDHKNQKETHQRHAAGSGGGGSPHHHHHH
- Strength of binding (5 highest, 0 lowest) [2]: 0
- Strength of binding (5 highest, 0 lowest) [3]: 0
- Strength of binding (5 highest, 0 lowest) [4]: 0
- Strength of binding (5 highest, 0 lowest) ([1]; Table 9, peptide 0.002 μM, no SLES wash): 2
- Strength of binding (5 highest, 0 lowest) ([1]; Table 11, peptide 0.002 μM): 2
- Strength of binding (5 highest, 0 lowest) ([1]; Table 11, peptide 0.02 μM): 5
- Strength of binding (5 highest, 0 lowest) ([1]; Table 11, peptide 0.2 μM): 5
- Strength of binding (5 highest, 0 lowest) [5]: 1
- Strength of binding (5 highest, 0 lowest) [6]: 0
